{"source": "paper PMC5429807", "about": "“Glucose uptake in Azotobacter vinelandii occurs through a GluP transporter that is under the control of the CbrA/CbrB and Hfq-Crc systems”", "key": {"Hfq-His (P. putida)": {"target": "T1, Hfq-His (P. putida) (Pseudomonas putida, UniProt Q88DD3 1-86)", "T1 sequence": "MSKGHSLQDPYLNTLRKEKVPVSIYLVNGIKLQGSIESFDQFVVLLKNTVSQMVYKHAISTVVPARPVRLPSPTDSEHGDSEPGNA", "experiment": "EMSA; Hfq alone, at the tested concentrations; RNA EMSA as in a cited protocol (ref. 13), excess tRNA, non-denaturing polyacrylamide gel; buffer, salt, pH and temperature not given in the material", "details": "protein: recombinant; tags: His; chain copies: 6; label: 5'-32P; single strand"}, "Hfq-His;Crc [1]": {"target": "T2, Hfq-His;Crc (Azotobacter vinelandii …, UniProt C1DLQ2;C1DI50 1-84;1-259, |)", "T2 sequence (C1DLQ2 whole entry, one chain of several)": "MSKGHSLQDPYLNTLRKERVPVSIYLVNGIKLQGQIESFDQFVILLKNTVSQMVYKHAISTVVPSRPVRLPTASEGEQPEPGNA", "experiment": "EMSA; about equimolar Hfq hexamer and Crc needed; RNA EMSA as in a cited protocol (ref. 13), excess tRNA, non-denaturing polyacrylamide gel; buffer, salt, pH and temperature not given in the material", "details": "protein: recombinant;recombinant; tags: C-terminal His6;none (intein removed); chain copies: 6;1; label: 5'-32P; single strand"}, "Crc": {"target": "T3, Crc (Azotobacter vinelandii AEIV, UniProt C1DI50 1-259)", "T3 sequence": "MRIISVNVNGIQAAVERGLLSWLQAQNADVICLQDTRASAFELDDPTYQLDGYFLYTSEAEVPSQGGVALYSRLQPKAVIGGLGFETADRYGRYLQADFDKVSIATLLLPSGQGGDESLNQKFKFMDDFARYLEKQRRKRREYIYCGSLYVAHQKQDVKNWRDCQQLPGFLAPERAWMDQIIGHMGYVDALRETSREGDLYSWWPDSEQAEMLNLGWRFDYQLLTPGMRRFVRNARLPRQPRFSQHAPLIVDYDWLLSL", "experiment": "EMSA; Crc alone; RNA EMSA as in a cited protocol (ref. 13), excess tRNA, non-denaturing polyacrylamide gel; buffer, salt, pH and temperature not given in the material", "details": "protein: recombinant; tags: none (intein removed); label: 5'-32P; single strand"}, "Hfq-His;Crc [2]": {"target": "T2, Hfq-His;Crc", "experiment": "EMSA; control RNA; stable complex not observed; RNA EMSA as in a cited protocol (ref. 13), excess tRNA, non-denaturing polyacrylamide gel; buffer, salt, pH and temperature not given in the material", "details": "protein: recombinant;recombinant; tags: C-terminal His6;none (intein removed); chain copies: 6;1; single strand"}}}
{"binder": "AAGCAACAAUCACAACAAGAGGAAAU (ssRNA)", "note": "[gluP A-rich RNA oligo]", "values": [{"measurement": "binding result", "setting": "Hfq-His (P. putida)", "result": "no binding"}, {"measurement": "binding result", "setting": "Hfq-His;Crc [1]", "result": "binds"}, {"measurement": "binding result", "setting": "Crc", "result": "no binding"}]}
{"binder": "UUCCCCAUCUCCCCAUCCAUAGGGGC (ssRNA)", "note": "[DmpR 6C control RNA]", "values": [{"measurement": "binding result", "setting": "Hfq-His;Crc [2]", "result": "no binding"}]}
